Changes are numbered by the printed parent chain. In names and notes the source's numbering stands.

Data set [1] concerns the molecule itself. In words: crystal structure.
Substrate in data set [2]: Cc1cc2nc3c(=O)[nH]c(=O)nc-3n(C[C@H](O)[C@H](O)[C@H](O)COP(=O)(O)OP(=O)(O)OC[C@H]3O[C@@H](n4cnc5c(N)ncnc54)[C@H](O)[C@@H]3O)c2cc1C
The data set can be described thus: HPLC of MTA-CoA formation, initial rates, nonlinear fit. It counts as biochemical, Roseovarius nubinhibens. Particulars: MMPA-CoA as substrate, pH 9.0, 40°C, varied: cofactor.

Substrate in data set [3]: CSCCC(=O)SCCNC(=O)CCNC(=O)[C@H](O)C(C)(C)COP(=O)(O)OP(=O)(O)OC[C@H]1O[C@@H](n2cnc3c(N)ncnc32)[C@H](O)[C@@H]1OP(=O)(O)O
Described as above. Particulars: FAD, pH 9.0, 40°C. It counts as biochemical, Roseovarius nubinhibens.

B1: DmdB Lys523Ala mutant (Ruegeria lacuscaerulensis ITI_1157) (enzyme, UniProt P0DX84 1-539, looked up)
chain: MLGQMMTQPLLISSLIDHAARYHGQTEIVSVETDGTVTRTNWGEIAANARRMGSALTKLGLQPQDRIGTLAWNNRRHLEIYYAASGAGFVCHTINPRLFPEQLVYIINHAQDRVLFFDATFLPLVAAIRDQLTEVKHFVLMGPRNEDALQQIPGLEFYDELIETGDTDFEWPVFDENTASSLCYTSGTTGHPKGVLYSHRSTVLHSFASNTRDVIGYSAMDVVMPVVPMFHVNAWGSPYGCAMSGAQMVLPGPDLHGEALVNLIDTYGVTLAMGVPTIWQGLLAHAAKCGTKLESLERTVIGGAACPPSMIATFREKYGVDTVHAWGMSEMSPLGTANIPLAKHRKLPIEEQHKLRENQGRPPFGVELKIVDDDGNDLPHDGVTQGDLMVRGHWVLDSYFQLKDQELLQDGWFATGDVATLDPDGYMTIRDRSKDIIKSGGEWISSVELENIAVAHPKLATAAVIGVPHPKWDERPLLVAVKAEGEDPSEAELLEFFDGKIAKWQVPDKVVFVDALPLNATGAVLKRKLRDEFKDALTG
B1: the binding result in data set [1] is on record as “binds”.

B2: DmdC (ISM) (Roseovarius nubinhibens ISM; T170A) (protein)
chain: MTRYTAPTQDIQYLLHDVLDVANDPTPGYAELEPDFTSAVLEEAGKIAGEVLHPLNAVGDQEGCVLENGVVRPPKGFKEAFDQVREGGWTALDLPEQYGGQNMPYLLGTAVGEMFSGANQAFTMYQGLTHGAASAILVHGTDQQKDTYLPKMFSCDWTGTMNLTEPHCGADLGLMRSKAVPQDDGSYAISGQKIFISAGEHDMAENIIHLVLAKIPGGPEGIKGVSLFIVPKFLVKEDGSLGERNGVKCSKIEEKMGIHGNSTCVMDYDGAKGWLLGEEHKGMRAMFTMMNEARIGVGMQGLAQAEVAYQNALDYARDRLQGRSVTGVENPDGPADPLIVHPDIRRNLLDQKSFIEGARAFLLWGAQMIDRAERGKDEAAHGMVSLLTPVIKGFLTDEGYDMTVQAQQVYGGHGYIEETGMSQFTRDARIAMIYEGANGVQALDLVGRKLAQDGGKHVMAFFDLVKGFIKEAGTDGAMAEFTEPLKSASKDLQSAGMFFMQNGMKNPNAALAGSYDFMHLFGHVCLGLMWGRMAEASLKALAEGRGDANFHETKLATARFYMTRRLPATKLHLARIESGADPVMALDADRF
Turning to B2, the Km – broadly, the substrate concentration at which the rate is half of its maximum – in data set [2] turned out to be 0.1125 ± 0.0045 mM.

B3: DmdC (ISM) (Roseovarius nubinhibens ISM; R284A) (protein)
chain: B2 chain with A170T, R284A
With B3, the Km in data set [3] came to 12.4 ± 1.0 mM.

For the origin of these results see paper PMC6850173 (Molecular Microbiology, 2019).
